According to ChEMBL document CHEMBL1773060, “Two-step synthesis of novel, bioactive derivatives of the ubiquitous cofactor nicotinamide adenine dinucleotide (NAD)” (J Med Chem, 2011):

Substrate: NC(=O)c1ccc[n+]([C@@H]2O[C@H](COP(=O)([O-])OP(=O)(O)OC[C@H]3O[C@@H](n4cnc5c(N)ncnc54)[C@H](O)[C@@H]3O)[C@@H](O)[C@H]2O)c1
Test: Activity at human SIRT1 assessed as ADP-ribosyltransferase activity

B1: NAD-dependent protein deacetylase sirtuin-1 (Homo sapiens), Q96EB6 (protein)
chain: MADEAALALQPGGSPSAAGADREAASSPAGEPLRKRPRRDGPGLERSPGEPGGAAPEREVPAAARGCPGAAAAALWREAEAEAAAAGGEQEAQATAAAGEGDNGPGLQGPSREPPLADNLYDEDDDDEGEEEEEAAAAAIGYRDNLLFGDEIITNGFHSCESDEEDRASHASSSDWTPRPRIGPYTFVQQHLMIGTDPRTILKDLLPETIPPPELDDMTLWQIVINILSEPPKRKKRKDINTIEDAVKLLQECKKIIVLTGAGVSVSCGIPDFRSRDGIYARLAVDFPDLPDPQAMFDIEYFRKDPRPFFKFAKEIYPGQFQPSLCHKFIALSDKEGKLLRNYTQNIDTLEQVAGIQRIIQCHGSFATASCLICKYKVDCEAVRGDIFNQVVPRCPRCPADEPLAIMKPEIVFFGENLPEQFHRAMKYDKDEVDLLIVIGSSLKVRPVALIPSSIPHEVPQILINREPLPHLHFDVELLGDCDVIINELCHRLGGEYAKLCCNPVKLSEITEKPPRTQKELAYLSELPPTPLHVSEDSSSPERTSPPDSSVIVTLLDQAAKSNDDLDVSESKGCMEEKPQEVQTSRNVESIAEQMENPDLKNVGSSTGEKNERTSVAGTVRKCWPNRVAKEQISRRLDGNQYLFLPPNRYIFHGAEVYSDSEDDVLSSSSCGSNSDSGTCQSPSLEEPMEDESEIEEFYNGLEDEPDVPERAGGAGFGTDGDDQEAINEAISVKQEVTDMNYPSNKS
- Km: 80 µM
